Reference: patent US20240417475A1 (AFFIMED, published 2024)

B1: scFv-IgAb_444 (RSV×CD16A) (bispecific antibody)
chain 1: QVTLRESGPALVKPTQTLTLTCTFSGFSLSTAGMSVGWIRQPPGKALEWLADIWWDDKKHYNPSLKDRLTISKDTSKNQVVLKVTNMDPADTATYYCARDMIFNFYFDVWGQGTTVTVSSASTKGPSVFPLAPSSKSTSGGTAALGCLVKDYFPEPVTVSWNSGALTSGVHTFPAVLQSSGLYSLSSVVTVPSSSLGTQTYICNVNHKPSNTKVDKKVEPKSCDKTHTCPPCPAPEFEGGPSVFLFPPKPKDTLMISRTPEVTCVVVAVSHEDPEVKFNWYVDGVEVHNAKTKPREEQYNSTYRVVSVLTVLHQDWLNGKEYKCKVSNKALPAPIEKTISKAKGQPREPQVYTLPPSREEMTKNQVSLTCLVKGFYPSDIAVEWESNGQPENNYKTTPPVLDSDGSFFLYSKLTVDKSRWQQGNVFSCSVMHEALHNHYTQKSLSLSPGGGGGSGGGGSGGGGSGGGGSGGGGSGGGGSSYELTQPLSVSVALGQTARITCGGNNIGSKSVHWYQQKPGQAPVLVIYQDKKRPSGIPERFSGSNSGNTATLTISRAQAGDEADYYCQVWDDYIVLFGCGTKLTVLGGSGGSGGSGGSGGSGGSGGSQVQLVQSGAEVKKPGASVKVSCKASGYTFTNYYMQWVRQAPGQCLEWMGIINPSGGVTSYAQKFQGRVTMTRDTSTSTVYMELSSLRSEDTAVYYCARGSAYYYDFADYWGQGTLVTVSSG
chain 2: DIQMTQSPSTLSASVGDRVTITCSASSRVGYMHWYQQKPGKAPKLLIYDTSKLASGVPSRFSGSGSGTEFTLTISSLQPDDFATYYCFQGSGYPFTFGGGTKVEIKRTVAAPSVFIFPPSDEQLKSGTASVVCLLNNFYPREAKVQWKVDNALQSGNSQESVTEQDSKDSTYSLSSTLTLSKADYEKHKVYACEVTHQGLSSPVTKSFNRGEC
notes: also called RSV/CD16A scFv-IgAb_444; RSV(NIST)×CD16A
B2: scFv-IgAb_264 (CD123-2×CD16a2) (bispecific antibody)
chain 1: QVQLVQSGAEVKKPGASVKMSCKASGYTFTDYYMKWVKQAPGQGLEWIGDIIPSNGATFYNQKFKGKATLTVDRSISTAYMHLNRLRSDDTAVYYCTRSHLLRASWFAYWGQGTLVTVSSASTKGPSVFPLAPSSKSTSGGTAALGCLVKDYFPEPVTVSWNSGALTSGVHTFPAVLQSSGLYSLSSVVTVPSSSLGTQTYICNVNHKPSNTKVDKKVEPKSCDKTHTCPPCPAPEFEGGPSVFLFPPKPKDTLMISRTPEVTCVVVAVSHEDPEVKFNWYVDGVEVHNAKTKPREEQYNSTYRVVSVLTVLHQDWLNGKEYKCKVSNKALPAPIEKTISKAKGQPREPQVYTLPPSREEMTKNQVSLTCLVKGFYPSDIAVEWESNGQPENNYKTTPPVLDSDGSFFLYSKLTVDKSRWQQGNVFSCSVMHEALHNHYTQKSLSLSPGGGGGSGGGGSGGGGSGGGGSGGGGSGGGGSSYELTQPLSVSVALGQTARITCGGHNIGSKNVHWYQQKPGQAPVLVIYQDNKRPSGIPERFSGSNSGNTATLTISRAQAGDEADYYCQVWDNYNVLFGCGTKLTVLGGSGGSGGSGGSGGSGGSGGSQVQLVQSGAEVKKPGASVKVSCKASGYTFTSYYMHWVRQAPGQCLEWMGAIEPRYGSTSYAQKFQGRVTMTRDTSTSTVYMELSSLRSEDTAVYYCARGSAYYYDFADYWGQGTLVTVSS
chain 2: not shown
notes: also called scFv-IgAb_264 (CD16a1×CD123-2); CD123-1×CD16a2 scFv-IgAb_264

Tests used:
[1] = molecular target: T1, CD16A endogenously expressed on primary human NK cells (human, UniProt P08637 17-254); assay: flow cytometry on primary human NK cells at 37 °C, biotinylated antibody, streptavidin-FITC, in the presence of 10 mg/mL polyclonal human IgG (competitor)
T1 sequence (P08637 17-254 limits assumed): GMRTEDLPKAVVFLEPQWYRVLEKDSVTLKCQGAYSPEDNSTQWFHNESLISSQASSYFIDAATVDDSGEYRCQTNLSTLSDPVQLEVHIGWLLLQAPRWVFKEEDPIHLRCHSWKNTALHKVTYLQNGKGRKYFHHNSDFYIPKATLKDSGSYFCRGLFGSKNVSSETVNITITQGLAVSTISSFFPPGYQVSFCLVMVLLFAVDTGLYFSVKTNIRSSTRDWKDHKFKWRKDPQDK
Description: (§1) Frozen NK cells were thawed, and viability was determined with trypan blue (Sigma-Aldrich, cat.: T8154). Cells have been centrifuged at 400×g, 5 min, 4° C. Cell pellets were resuspended in FACS buffer PBS (Invitrogen, cat.: 392-0434) containing 2% h.i. FCS (Invitrogen, cat.: 10500-064), and 0.1% sodium azide (Sigma, cat.: S8032) at 2×10⁶ cells/mL. 100 μL/well of the cell suspension were transferred into U-shaped 96 well plates, cells were pelleted at 400×g, 5 min. 4° C., and resuspended in 50 μL/well of diluted antibody constructs. […] After 40-50 minutes' incubation at 37° C., cells were washed 3-times with ice-cold FACS buffer. […] After the final incubation step, cells were washed 2-times with ice-cold FACS buffer, and the cell pellet was resuspended in 50 μL FACS buffer. Fluorescence intensity of >1×10⁴ viable cells was analyzed by flow cytometry and the median fluorescence intensity (MFI) was determined for each sample.

[2] = molecular target: T1, CD16A endogenously expressed on primary …; assay: flow cytometry on primary human NK cells, biotinylated antibody, 37 C, without IgG, mean of 4
Description: (§2) 4° C., and resuspended in 50 μL/well of diluted antibody constructs. […] After 40-50 minutes' incubation at 37° C., cells were washed 3-times with ice-cold FACS buffer. […] After the final incubation step, cells were washed 2-times with ice-cold FACS buffer, and the cell pellet was resuspended in 50 μL FACS buffer. Fluorescence intensity of >1×10⁴ viable cells was analyzed by flow cytometry and the median fluorescence intensity (MFI) was determined for each sample.
(§3) Equilibrium dissociation constants (KD) of antibody binding were calculated by plotting MFI values and fitting a non-linear regression model for one-site binding to hyperbolic dose-response curves using GraphPad Prism.

[3] = molecular target: T1, CD16A endogenously expressed on primary …; assay: flow cytometry on primary human NK cells at 37 °C, biotinylated antibody, streptavidin-FITC, without polyclonal human IgG
Description: as §1

[4] = molecular target: T1, CD16A endogenously expressed on primary …; assay: flow cytometry on primary human NK cells, biotinylated antibody, 37 C, with 10 mg/mL polyclonal human IgG as competitor, mean of 4
Description: as §2, §3

[5] = molecular target: T2, human FOLR1 endogenously expressed on tumor cell lines (human, UniProt P15328 25-234); assay: cell-based or functional assay
T2 sequence (P15328 25-234): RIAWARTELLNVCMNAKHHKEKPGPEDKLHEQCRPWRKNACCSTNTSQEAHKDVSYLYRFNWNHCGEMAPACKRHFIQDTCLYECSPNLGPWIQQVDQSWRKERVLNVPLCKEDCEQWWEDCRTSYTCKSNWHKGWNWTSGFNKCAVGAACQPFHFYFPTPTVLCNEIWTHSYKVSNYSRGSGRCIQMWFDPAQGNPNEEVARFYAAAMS

[6] = molecular target: T1, CD16A endogenously expressed on primary …; assay: flow cytometry on primary human NK cells, with against without 10 mg/mL polyclonal human IgG
Description: as §2, §3

[7] = molecular target: T2, human FOLR1 endogenously expressed on …; assay: flow cytometry on IGROV-1 cells (FOLR1 high) at 37 °C, FITC anti-human IgG detection
Description: Cells were collected and centrifuged at 400×g, 5 min, 4° C. Cell pellets were resuspended in FACS buffer (PBS (Invitrogen, cat.: 392-0434) containing 2% h.i. FCS (Invitrogen, cat.: 10500-064), and 0.1% sodium azide (Sigma, cat.: S8032)) at 1-5×10⁶ cells/mL. 100 μL/well of the cell suspension were transferred into U-shaped, 96-well micro plates (0.1-0.5×10⁶ cells per well), cells were pelleted at 400×g, 5 min, 4° C., and resuspended in 100 μL/well of serial dilutions of the indicated antibodies in FACS buffer. After 40-50 min incubation at 37° C., cells were washed 3-times with ice-cold FACS buffer. […] After the final incubation step, cells were washed 2-times with ice-cold FACS buffer, and the cell pellet was resuspended in 100 μL FACS buffer. Fluorescence intensities of >1×10⁴ viable cells were analyzed by flow cytometry and the median fluorescence intensity (MFI) was determined for each sample.

[8] = molecular target: T3, recombinant human CD16A^158V, biotinylated, mFc.silenced/Avi-tagged (human, UniProt P08637 17-208, biotinylated (Avi-tag)); assay: SPR (Biacore T200), 37 °C, multivalent multi-cycle kinetics, biotin-captured antigen as ligand, construct as analyte, 1:1 binding model, n=3
T3 construct: also called CD16^158V
T3 sequence (P08637 17-208 F176V limits assumed): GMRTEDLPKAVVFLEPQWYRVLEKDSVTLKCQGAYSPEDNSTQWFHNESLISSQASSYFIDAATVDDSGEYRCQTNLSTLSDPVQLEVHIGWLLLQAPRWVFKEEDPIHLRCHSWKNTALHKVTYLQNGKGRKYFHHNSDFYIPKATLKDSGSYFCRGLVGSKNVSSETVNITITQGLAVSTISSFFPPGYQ
Description: (§4) For multivalent interaction analysis, biotinylated-mFc.silenced/Avi-tagged antigens were captured (FC2, FC4) to a density of 120-200RU, before CD123×CD16A ICE were injected (concentration: 0-60 nM) for 240s at a flow rate of 40 μL/min and complex was left to dissociate for 300s at the same flow rate.
(§5) After each cycle, chip surfaces were regenerated with 6M guanidine-HCl, 0.25M NaOH and reloaded with Biotin Capture reagent. Interaction kinetics were determined by fitting data from multi-cycle kinetics experiments to a simple 1:1 interaction model using the local data analysis option (Rmax and RI) available within Biacore T200 Evaluation Software (v3.1). Referencing was done against a flow cell without captured ligand (Fc2-Fc1, Fc4-Fc3).

[9] = molecular target: recombinant human CD16A^158F, biotinylated, mFc.silenced/Avi-tagged (human, UniProt P08637 17-208, biotinylated (Avi-tag)); assay: as above
recombinant human CD16A^158F, biotinylated, mFc.silenced/Avi-tagged, sequence (P08637 17-208): as the sequence (P08637 17-208 F176V limits assumed) above, with V160F counted along it
Description: as §4, §5

[10] = molecular target: recombinant cynomolgus CD16, biotinylated, mFc.silenced/Avi-tagged (cynomolgus, UniProt Q8SPW2 17-208, biotinylated (Avi-tag)); assay: as above
recombinant cynomolgus CD16, biotinylated, mFc.silenced/Avi-tagged, sequence (Q8SPW2 17-208): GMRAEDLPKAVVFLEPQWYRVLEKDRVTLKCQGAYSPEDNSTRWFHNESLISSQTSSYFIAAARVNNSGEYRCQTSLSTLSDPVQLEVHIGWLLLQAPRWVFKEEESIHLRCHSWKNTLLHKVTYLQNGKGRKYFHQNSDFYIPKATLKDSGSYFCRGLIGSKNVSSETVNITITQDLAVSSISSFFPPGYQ
Description: as §4, §5

Binder | EC50 (read off the curve) [1] [nM] | Kd [2] [nM] | EC50 (read off the curve) [3] [nM] | Kd [4] [nM] | Phagocytosis [%], 4 h ADCP, DK-MG cells [5] [%] | Phagocytosis [%], 4 h ADCP, HCC-78 cells [5] [%] | Phagocytosis [%], 4 h ADCP, HeLa cells [5] [%] | fold loss in KD induced by IgG [6] [fold] | binding result [7] | Kd [8] [nM] | koff [8] [s⁻¹] | kon [8] [M⁻¹ s⁻¹] | Kd [9] [nM] | koff [9] [s⁻¹] | kon [9] [M⁻¹ s⁻¹] | Kd [10] [nM] | koff [10] [s⁻¹] | kon [10] [M⁻¹ s⁻¹]
B1 | 10 to 20 | 3.8 | ~4 | 19.9 | 0 | 0 | 0 | 5 | no binding (tested: about 500 nM) |  |  |  |  |  |  |  |  | 
B2 |  |  |  |  |  |  |  |  |  | 0.43 | 0.0027 | 6.3e+06 | 0.567 | 0.0036 | 6.4e+06 | 2.4 | 0.013 | 5.2e+06
